From the supplement of paper PMC11246515 come the findings set out here.

± gives the standard deviation of the averaged measurements.

The series can be described thus: total protein half-life in vivo (active degradation + dilution); higher = more stable protein.
Where [1] appears, read: E. coli NCM3722 delta-clpP delta-lon delta-hslV, growth: N-lim chemostat, doubling time 6 h.
Where [2] appears, read: E. coli NCM3722 delta-hslV, growth: N-lim chemostat, doubling time 6 h.
The mark [3] stands for this setting: E. coli NCM3722 delta-smpB, growth: N-lim chemostat, doubling time 6 h.
Where [4] appears, read: wild type E. coli NCM3722, growth: C-lim chemostat, doubling time 3 h.
Where [5] appears, read: wild type E. coli NCM3722, growth: C-lim chemostat, doubling time 6 h.
Where [6] appears, read: wild type E. coli NCM3722, growth: C-lim chemostat, doubling time 12 h.
The mark [7] stands for this setting: wild type E. coli NCM3722, growth: N-lim chemostat, doubling time 6 h.
[8] abbreviates: wild type E. coli NCM3722, growth: N-lim chemostat, doubling time 12 h.
The mark [9] stands for this setting: wild type E. coli NCM3722, growth: P-lim chemostat, doubling time 6 h.
The mark [10] stands for this setting: wild type E. coli NCM3722, growth: P-lim chemostat, doubling time 12 h.
Setting [11] is: E. coli NCM3722 delta-lon, growth: N-lim chemostat, doubling time 6 h.
[12] abbreviates: E. coli NCM3722 delta-clpP, growth: N-lim chemostat, doubling time 6 h.

Take “MSNNEFHQRRLSATPRGVGVMCNFFAQSAENATLKDVEGNEYIDFAAGIAVLNTGHRHPDLVAAVEQQLQQFTHTAYQIVPYESYVTLAEKINALAPVSGQAKTAFFTTGAEAVENAVKIARAHTGRPGVIAFSGGFHGRTYMTMALTGKVAPYKIGFGPFPGSVYHVPYPSDLHGISTQDSLDAIERLFKSDIEAKQVAAIIFEPVQGEGGFNVAPKELVAAIRRLCDEHGIVMIADEVQSGFARTGKLFAMDHYADKPDLMTMAKSLAGGMPLSGVVGNANIMDAPAPGGLGGTYAGNPLAVAAAHAVLNIIDKESLCERANQLGQRLKNTLIDAKESVPAIAAVRGLGSMIAVEFNDPQTGEPSAAIAQKIQQRALAQGLLLLTCGAYGNVIRFLYPLTIPDAQFDAAMKILQDALSD”: the “total protein half-life in vivo” value runs as follows: under setting [1], 3.77 ± 0.53 h; under setting [2], 1 h; under setting [3], 0.902 ± 0.068 h; under setting [4], 2.883 ± 0.027 h; under setting [5], 2.81 ± 0.47 h; under setting [6], 4.33 ± 0.44 h. For the same sequence, the “total protein half-life in vivo” value turned out to be 1.25 h under setting [7], 1.67 h under setting [8], 3.46 ± 0.35 h under setting [9] and 5.88 ± 0.5 h under setting [10].

Consider “MNMKTIEDVFIHLLSDTYSAEKQLTRALAKLARATSNEKLSQAFHAHLEETHGQIERIDQVVESESNLKIKRMKCVAMEGLIEEANEVIESTEKNEVRDAALIAAAQKVEHYEIASYGTLATLAEQLGYRKAAKLLKETLEEEKATDIKLTDLAINNVNKKAENKA”, for which the “total protein half-life in vivo” value under setting [1] came to 5.25 ± 0.25 h; the “total protein half-life in vivo” value under setting [2] was 5.18 ± 0.69 h; the “total protein half-life in vivo” value under setting [11] came out at 6.51 ± 0.95 h; the “total protein half-life in vivo” value under setting [3] worked out at 4.94 ± 0.081 h; the “total protein half-life in vivo” value under setting [4] was found to be 3.02 ± 0.13 h; the “total protein half-life in vivo” value under setting [5] was found to be 5.04 ± 0.77 h. Besides, the “total protein half-life in vivo” value runs as follows: under setting [6], 10.5 ± 1.4 h; under setting [7], 4.881 ± 0.03 h; under setting [8], 7.99 ± 0.53 h; under setting [9], 5.294 ± 0.042 h; under setting [10], 10.3 ± 0.62 h.

For “MRTTIAVVLGAISLTSAFVFADKPDVARSANDEVSTLFFGHDDRVPVNDTTQSPWDAVGQLETASGNLCTATLIAPNLALTAGHCLLTPPKGKADKAVALRFVSNKGLWRYEIHDIEGRVDPTLGKRLKADGDGWIVPPAAAPWDFGLIVLRNPPSGITPLPLFEGDKAALTAALKAAGRKVTQAGYPEDHLDTLYSHQNCEVTGWAQTSVMSHQCDTLPGDSGSPLMLHTDDGWQLIGVQSSAPAAKDRWRADNRAISVTGFRDKLDQLSQK”, the “total protein half-life in vivo” value reads like this: under setting [1], 5.08 ± 0.47 h; under setting [12], 5.58 ± 0.3 h; under setting [2], 6.26 ± 0.068 h; under setting [11], 5.8 ± 0.71 h; under setting [3], 4.76 ± 0.16 h; under setting [4], 2.07 ± 0.13 h. Besides, the “total protein half-life in vivo” value runs as follows: under setting [5], 4.406 ± 0.0069 h; under setting [6], 9.64 ± 2.3 h; under setting [7], 5.29 ± 0.23 h; under setting [8], 10.9 ± 0.45 h; under setting [9], 6.23 ± 0.28 h; under setting [10], 11.4 ± 1.1 h.

For the sequence “MSHLAELVASAKAAISQASDVAALDNVRVEYLGKKGHLTLQMTTLRELPPEERPAAGAVINEAKEQVQQALNARKAELESAALNARLAAETIDVSLPGRRIENGGLHPVTRTIDRIESFFGELGFTVATGPEIEDDYHNFDALNIPGHHPARADHDTFWFDTTRLLRTQTSGVQIRTMKAQQPPIRIIAPGRVYRNDYDQTHTPMFHQMEGLIVDTNISFTNLKGTLHDFLRNFFEEDLQIRFRPSYFPFTEPSAEVDVMGKNGKWLEVLGCGMVHPNVLRNVGIDPEVYSGFAFGMGMERLTMLRYGVTDLRSFFENDLRFLKQFK”, the “total protein half-life in vivo” value is, setting by setting: under setting [1], 5.84 ± 0.27 h; under setting [12], 6.11 ± 0.96 h; under setting [2], 5.72 ± 0.43 h; under setting [11], 6.07 ± 0.69 h; under setting [3], 4.98 ± 0.13 h; under setting [4], 3.49 ± 0.22 h. The “total protein half-life in vivo” value under setting [5] was determined as 6.19 ± 0.32 h; the “total protein half-life in vivo” value under setting [6] is 12.5 ± 0.82 h; the “total protein half-life in vivo” value under setting [7] turned out to be 5.37 ± 0.42 h; the “total protein half-life in vivo” value under setting [8] was determined as 9.85 ± 0.2 h; the “total protein half-life in vivo” value under setting [9] is 6.28 ± 0.36 h; the “total protein half-life in vivo” value under setting [10] was determined as 12.91 ± 0.048 h.

In the case of “MLINIGRLLMLCVWGFLILNLVHPFPRPLNIFVNVALIFTVLMHGMQLALLKSTLPKDGPQMTTAEKVRIFLFGVFELLAWQKKFKVKK”, the “total protein half-life in vivo” value under setting [1] worked out at 6.84 h; the “total protein half-life in vivo” value under setting [2] was 7.72 h; the “total protein half-life in vivo” value under setting [11] was 6.85 h; the “total protein half-life in vivo” value under setting [3] was 6.18 h; the “total protein half-life in vivo” value under setting [4] is 3.25 h; the “total protein half-life in vivo” value under setting [7] came out at 4.21 h. Further, the “total protein half-life in vivo” value came out at 6.22 h under setting [9] and 12.6 h under setting [10].

On to “MRTLQGWLLPVFMLPMAVYAQEATVKEVHDAPAVRGSIIANMLQEHDNPFTLYPYDTNYLIYTQTSDLNKEAIASYDWAENARKDEVKFQLSLAFPLWRGILGPNSVLGASYTQKSWWQLSNSEESSPFRETNYEPQLFLGFATDYRFAGWTLRDVEMGYNHDSNGRSDPTSRSWNRLYTRLMAENGNWLVEVKPWYVVGNTDDNPDITKYMGYYQLKIGYHLGDAVLSAKGQYNWNTGYGGAELGLSYPITKHVRLYTQVYSGYGESLIDYNFNQTRVGVGVMLNDLF [P0A921]”, for which the “total protein half-life in vivo” value reads like this: under setting [1], 6.42 ± 0.11 h; under setting [12], 6.15 ± 0.48 h; under setting [11], 7.24 ± 0.85 h; under setting [3], 5.96 ± 0.66 h; under setting [4], 3.01 ± 0.048 h; under setting [5], 6.37 ± 1.1 h. For the same sequence, the “total protein half-life in vivo” value under setting [6] turned out to be 14.2 ± 0.33 h; the “total protein half-life in vivo” value under setting [7] was 6.28 ± 0.44 h; the “total protein half-life in vivo” value under setting [8] worked out at 13.3 ± 0.75 h; the “total protein half-life in vivo” value under setting [9] came to 6.13 ± 0.1 h; the “total protein half-life in vivo” value under setting [10] was 14.2 ± 0.75 h.

As to “MTIYFINWVADYELKMIQYLKKKYKIKNITTPKKYNWINKKISKIGMDNAWLGRLFIKHYLNDIKKDDIIIINDSVVNKGINKQILKNINCHKVLLLRNTVGEDFILDNANYFDIIYDFEHRFIGNEKIKAIEQFFPIGMDEIRNYSLSDKNNSQPICFFLGRDKGRLQIINELAERLTTLGCKLDFNVVKDKTSSTTSKYLIEKQISYEENIRRTLNANIIVDITKENQSGWTLRILEALFFNKKLITNNINVFGSEIYSESRFFIIGHDDWDKLEYFINSSVKPMDYDSLYKFSPDKMMSTIVSDFIDK”, the “total protein half-life in vivo” value is, setting by setting: under setting [1], 7.07 ± 1.2 h; under setting [2], 5.4 ± 0.26 h; under setting [3], 4.651 ± 0.02 h; under setting [4], 2.87 ± 0.037 h; under setting [5], 4.87 ± 0.59 h; under setting [6], 9.41 ± 2.8 h. The “total protein half-life in vivo” value was determined as 5.54 ± 0.49 h under setting [7], 10.8 ± 2.5 h under setting [8], 4.59 ± 0.58 h under setting [9] and 10.1 ± 1 h under setting [10].
